Changes are numbered by the printed parent chain.
B1: antibody 5 (antibody, V domains shown)
VH: QVTLKESGPGILQPSQTLSLTCSFSGFSLSTFGMGVGWIRQPSGKGLEWLAHIWWDDEKYYNSALKSRLTISKATSKNQAFLKIANVDTADTATYYCARISNYGSNYWYFNVWGTGTTVTVSS
VL: QVVLTQSPALMSASPGEKVTMTCSAGSSVSCMYWYQQKPGSSPRVLIYDTSNLASGVPARFTGSGSGTSYSLTISRMEAEDAASYYCQQWNSYPLTFGAGTKLELK
notes: mouse IgG, kappa light chain; also called clone #5; purified antibody 5
B2: antibody 22 (antibody, V domains shown)
VH: B1 VH with A80V
VL: B1 VL with C31Y, S84T
notes: mouse IgG, kappa light chain; also called clone #22; purified antibody 22
B3: antibody 42 (antibody, V domains shown)
VH: B1 VH with F24L, M34R, S63P, A74D, A80V, K83R, S101Q, N111D
VL: LIVLTQSPAIMSASPGEKVTMTCGATSRISYMFWYQQKPGSSPRVLIYDTSNLASGVPVRFSGSGSGTSYSLTISRVEAEDVATYYCQQWNSYPLTFGAGTKLELK
notes: mouse IgG, kappa light chain; also called clone #42; purified antibody 42
B4: antibody 3 (antibody, V domains shown)
VH: QVTLKESGPGILQPSQTLSLTCSFSGFSLTTFAMGIGWVRQPSGKGLEWLAHIWWDGEKYNNPVLKSRLTISKDTSKNQVFLRIANVDTPDTATYYCARISSIYYIIDNWGQGTSVTVSS
VL: DIVLTQSPATLSVTPGHSVSLSCRASQSISNNLHWYQKKSHESPRLLIKYVSQSISGIPSRFSGSGSGTDFTLSINSVETEDFGMYFCQQSYNWPLTFGAGTKLELK
notes: mouse IgG, kappa light chain; also called clone #3; purified antibody 3
B5: antibody 34 (antibody, V domains shown)
VH: QVTLKESGPGILQPSQTLSLTCSFSGFSLSTFSLGVGWIRQSSGKGLEWLAHIWWDDEKYYNPALKSRLTISKDTSKNQVFLKIANVDAADTATYYCARAYYSKSYYALDYWGQGTSVTVSS
VL: DIQMTQSPSSLSASLGERVSLTCRASQEISGYLSWLQQKPDGTIKRLIYAASTLDSGVPKRFSGSRSGSDYSLAISSLESEDFADYYCLQYANFPFTFGSGTKLEIK
notes: mouse IgG, kappa light chain; also called clone #34; purified antibody 34
B6: antibody 43 (antibody, V domains shown)
VH: B1 VH with T3A, P42S, H52N, E58D, S63P, A74D, T75A, S101G, N111D
VL: B3 VL with L1Q, K18R, G24S, T26N, F33Y, V45L, V77M, V82A, Y86N, N91S
notes: mouse IgG, kappa light chain; also called clone #43; purified antibody 43
B7: antibody 44 (antibody, V domains shown)
VH: B1 VH with G44E, E58D, S63P, A74D, A80I, A85T, D91E, A98S, S101G, N111D
VL: QIVLTQSPAVMSASPGEKVTMTCTASSSVYYMYWYQQTPGSSPRLLIYDTSNLASGVPVRFSGSGSGTSYSLTISRMEAEDAATYYCQQWNTYPLTFGAGTKLELK
notes: mouse IgG, kappa light chain; also called clone #44; purified antibody 44

What was measured:
[1] = biological target: T1, hiR2-FL-P532A-T7 (human, UniProt Q6PJF5 1-856); test: FACS, MEF-DKO cells, 3 µg/ml
T1 sequence: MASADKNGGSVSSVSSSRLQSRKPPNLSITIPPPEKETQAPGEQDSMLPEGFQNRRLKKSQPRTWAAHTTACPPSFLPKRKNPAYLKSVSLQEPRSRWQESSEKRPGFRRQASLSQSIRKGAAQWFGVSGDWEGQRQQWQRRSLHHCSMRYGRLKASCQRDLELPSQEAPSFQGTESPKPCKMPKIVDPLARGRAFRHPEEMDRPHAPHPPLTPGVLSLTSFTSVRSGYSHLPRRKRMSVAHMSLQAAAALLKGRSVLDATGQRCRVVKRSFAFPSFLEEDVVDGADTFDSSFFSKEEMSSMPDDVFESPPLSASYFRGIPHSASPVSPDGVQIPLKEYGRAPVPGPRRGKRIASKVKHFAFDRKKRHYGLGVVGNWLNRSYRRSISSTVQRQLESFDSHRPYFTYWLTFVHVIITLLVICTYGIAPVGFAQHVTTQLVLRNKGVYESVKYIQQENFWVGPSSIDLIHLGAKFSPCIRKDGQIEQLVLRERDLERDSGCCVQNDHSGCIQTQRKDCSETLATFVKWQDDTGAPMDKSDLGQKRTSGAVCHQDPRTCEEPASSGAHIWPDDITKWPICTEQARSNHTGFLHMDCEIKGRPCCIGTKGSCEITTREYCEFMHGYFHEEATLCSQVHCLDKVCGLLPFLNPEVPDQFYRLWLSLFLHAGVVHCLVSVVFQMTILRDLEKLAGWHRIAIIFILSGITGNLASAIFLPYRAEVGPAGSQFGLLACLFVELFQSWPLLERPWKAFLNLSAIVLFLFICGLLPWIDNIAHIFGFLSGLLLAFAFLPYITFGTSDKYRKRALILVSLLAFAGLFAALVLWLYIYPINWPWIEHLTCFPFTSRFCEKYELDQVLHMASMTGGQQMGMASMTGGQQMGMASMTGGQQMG

[2] = biological target: T2, hiR2-FL-D535A-T7 (human, UniProt Q6PJF5 1-856); test: FACS on MEF-DKO cells expressing the variant, 3 µg/ml antibody
T2 sequence: T1 sequence with A532P, D535A
Outline: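 Two incubations on ice, each 1 hour: test antibody (3 μg/ml) or FACS buffer only, then PE anti-mouse F(ab′)2 at 1:100 in the dark. Centrifugation and washes used 4° C; staining quantified on a flow cytometer.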

Binder | loss of binding vs wild type [1] | loss of binding vs wild type [2]
B1 | ≥ 60% | ≥ 60%
B2 | ≥ 30% | ≥ 30%
B3 | ≥ 60% | ≥ 30%
B4 |  | ≥ 60%
B5 |  | ≥ 30%
B6 | ≥ 60% | 
B7 | ≥ 60% | ≥ 30%
